The text below walks through data of IntAct's records for PubMed 28965847.

B1: Suppressor of fused homolog (Homo sapiens), Q9UMX1 (parent)
chain: MAELRPSGAPGPTAPPAPGPTAPPAFASLFPPGLHAIYGECRRLYPDQPNPLQVTAIVKYWLGGPDPLDYVSMYRNVGSPSANIPEHWHYISFGLSDLYGDNRVHEFTGTDGPSGFGFELTFRLKRETGESAPPTWPAELMQGLARYVFQSENTFCSGDHVSWHSPLDNSESRIQHMLLTEDPQMQPVQTPFGVVTFLQIVGVCTEELHSAQQWNGQGILELLRTVPIAGGPWLITDMRRGETIFEIDPHLQERVDKGIETDGSNLSGVSAKCAWDDLSRPPEDDEDSRSICIGTQPRRLSGKDTEQIRETLRRGLEINSKPVLPPINPQRQNGLAHDRAPSRKDSLESDSSTAIIPHELIRTRQLESVHLKFNQESGALIPLCLRGRLLHGRHFTYKSITGDMAITFVSTGVEGAFATEEHPYAAHGPWLQILLTEEFVEKMLEDLEDLTSPEEFKLPKEYSWPEKKLKVSILPDVVFDSPLH

Variants of B1 are the subject of the assay. The following applies: with gli3_mouse Gli3, Q61602.
gli3_mouse Gli3, Q61602, sequence (Q61602 whole entry): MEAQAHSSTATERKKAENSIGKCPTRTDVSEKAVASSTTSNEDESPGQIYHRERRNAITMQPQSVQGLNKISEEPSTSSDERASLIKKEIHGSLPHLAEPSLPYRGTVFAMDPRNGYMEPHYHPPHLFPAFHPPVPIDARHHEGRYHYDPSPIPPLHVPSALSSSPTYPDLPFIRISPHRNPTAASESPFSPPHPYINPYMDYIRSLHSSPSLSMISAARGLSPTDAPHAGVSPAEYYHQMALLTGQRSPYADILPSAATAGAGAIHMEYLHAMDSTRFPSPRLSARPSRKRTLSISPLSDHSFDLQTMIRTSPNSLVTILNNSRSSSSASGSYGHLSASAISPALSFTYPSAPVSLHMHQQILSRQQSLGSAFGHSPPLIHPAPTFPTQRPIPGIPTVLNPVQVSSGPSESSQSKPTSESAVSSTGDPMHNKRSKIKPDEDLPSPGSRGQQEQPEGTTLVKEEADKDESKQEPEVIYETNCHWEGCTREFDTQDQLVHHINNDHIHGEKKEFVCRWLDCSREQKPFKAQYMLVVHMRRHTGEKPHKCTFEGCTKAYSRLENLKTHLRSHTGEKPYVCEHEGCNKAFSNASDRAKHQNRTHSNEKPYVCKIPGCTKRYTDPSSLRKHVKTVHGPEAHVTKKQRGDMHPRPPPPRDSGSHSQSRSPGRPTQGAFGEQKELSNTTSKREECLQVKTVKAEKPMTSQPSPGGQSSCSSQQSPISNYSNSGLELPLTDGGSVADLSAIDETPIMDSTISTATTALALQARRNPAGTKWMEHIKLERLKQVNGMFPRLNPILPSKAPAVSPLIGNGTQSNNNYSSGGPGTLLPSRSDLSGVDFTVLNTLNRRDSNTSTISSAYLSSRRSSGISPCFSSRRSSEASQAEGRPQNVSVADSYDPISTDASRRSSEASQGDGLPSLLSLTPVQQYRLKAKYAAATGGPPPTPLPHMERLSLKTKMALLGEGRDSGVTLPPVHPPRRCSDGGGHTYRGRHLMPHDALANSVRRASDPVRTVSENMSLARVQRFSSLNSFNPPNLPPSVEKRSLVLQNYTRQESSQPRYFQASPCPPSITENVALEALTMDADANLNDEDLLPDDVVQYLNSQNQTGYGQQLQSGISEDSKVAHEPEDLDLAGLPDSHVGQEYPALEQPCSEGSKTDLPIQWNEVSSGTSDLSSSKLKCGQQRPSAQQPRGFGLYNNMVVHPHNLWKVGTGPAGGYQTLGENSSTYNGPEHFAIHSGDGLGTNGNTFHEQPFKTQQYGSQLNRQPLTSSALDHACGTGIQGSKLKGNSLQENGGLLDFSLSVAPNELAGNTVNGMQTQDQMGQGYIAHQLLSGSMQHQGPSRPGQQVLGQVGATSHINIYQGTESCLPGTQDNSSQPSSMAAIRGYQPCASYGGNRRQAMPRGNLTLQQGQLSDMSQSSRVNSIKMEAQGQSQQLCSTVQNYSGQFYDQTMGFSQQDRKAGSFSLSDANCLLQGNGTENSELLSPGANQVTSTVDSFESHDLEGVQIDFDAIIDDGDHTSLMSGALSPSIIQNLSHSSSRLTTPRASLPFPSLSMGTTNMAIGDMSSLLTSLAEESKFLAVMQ
Consider MAELRPSGAPGPTAPPAPGPTAPPAFASLFPPGLHAIYGECRRLYPDQPNPLQVTAIVKYWLGGPDPLDYVSMYRNVGSPSANIPEHWHYISFGLSDLYGDNRVHEFTGTDGPSGFGFELTFRLKRETGESAPPTWPAELMQGLARYVFQSENTFCSGDHVSWHSPLDNSESRIQHMLLTEDPQMQPVQTPFGVVTFLQIVGVCTEELHSAQQWNGQGILELLRTVPIAGGPWLITDMRRGETIFEIDPHLQERVDKGIETDGSNLSGVSAKCAWDDLSRPPEDDEDSRSICIGTQPRRLSGKDTEQIRETLRRGLEINSKPVLPPINPQRQNGLAHDRAPSRKDSLESDSSTAIIPHELIRTRQLESVHLKFNQESGALIPLCLRGRLLHGRHFTYKSITGDMATTFVSTGVEGAFATEEHPYAAHGPWLQILLTEEFVEKMLEDLEDLTSPEEFKLPKEYSWPEKKLKVSILPDVVFDSPLH [I406T], for which the “effect of a mutation on the interaction” value was “disrupting interaction strength”.

MAELRPSGAPGPTAPPAPGPTAPPAFASLFPPGLHAIYGECRRLYPDQPNPLQVTAIVKYWLGGPDPLDYVSMYRNVGSPSANIPEHWHYISFGLSDLYGDNRVHEFTGTDGPSGFGFELTFRLKRETGESAPPTWPAELMQGLARYVFQSENTFCSGDHVSWHSPLDNSESRIQRMLLTEDPQMQPVQTPFGVVTFLQIVGVCTEELHSAQQWNGQGILELLRTVPIAGGPWLITDMRRGETIFEIDPHLQERVDKGIETDGSNLSGVSAKCAWDDLSRPPEDDEDSRSICIGTQPRRLSGKDTEQIRETLRRGLEINSKPVLPPINPQRQNGLAHDRAPSRKDSLESDSSTAIIPHELIRTRQLESVHLKFNQESGALIPLCLRGRLLHGRHFTYKSITGDMAITFVSTGVEGAFATEEHPYAAHGPWLQILLTEEFVEKMLEDLEDLTSPEEFKLPKEYSWPEKKLKVSILPDVVFDSPLH [H176R]: the “effect of a mutation on the interaction” value was “decreasing interaction strength”.
